The record followed here is patent publication US20110165679.

Assay in all cases: cell_activity
Series [1] has as its system Lig3-4 (engineered I-CreI-type single-chain meganuclease). Conditions: 3 of 637 clones mutated; BMS maize cells.
Series [2] deals with Lig3-4++ (engineered meganuclease variant). The note with it: 56 of 237 clones mutated; BMS maize cells.
Series [3] has as its system Lig3-4+ (engineered meganuclease variant). Conditions: 1 of 353 clones mutated; BMS maize cells.
A further series concerns the target T1, I-CreI (UniProt P05725).
T1 sequence: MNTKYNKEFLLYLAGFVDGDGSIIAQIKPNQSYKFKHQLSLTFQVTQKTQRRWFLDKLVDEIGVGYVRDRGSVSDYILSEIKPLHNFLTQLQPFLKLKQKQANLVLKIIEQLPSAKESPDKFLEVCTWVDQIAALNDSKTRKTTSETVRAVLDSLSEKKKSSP
Conditions: BMS maize cells.

Series [4] deals with T2, I-SceI (maize codon-modified moI-SceI) (UniProt P03882).
T2 sequence: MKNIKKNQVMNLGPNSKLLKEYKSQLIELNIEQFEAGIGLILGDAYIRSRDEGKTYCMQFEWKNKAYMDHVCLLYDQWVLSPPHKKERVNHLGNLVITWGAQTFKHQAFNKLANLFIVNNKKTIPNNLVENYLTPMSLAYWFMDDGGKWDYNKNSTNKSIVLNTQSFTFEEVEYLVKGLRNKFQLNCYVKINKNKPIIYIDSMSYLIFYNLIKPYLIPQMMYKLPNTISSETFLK
The note with it: BMS maize cells.

“ATATACCTCACACGTACGCGTA (double strand) [LIG-1 site (near liguleless1)]”: the activity (% mutation rate) in series [1] worked out at 0.5; in series [2], 24; in series [3] it was 0.3.
I-CreI site showed an activity (% mutation rate) with I-CreI (318 of 904 clones mutated, 0 of 34 without endonuclease) of 35.
For Double I-CreI site, the activity (% mutation rate) in the series with I-CreI (50 of 66 clones mutated) came to 76.
Substance Double I-SceI site showed an activity (% mutation rate) in series [4] (57 of 63 clones mutated) of 90.
Regarding I-SceI site, the activity (% mutation rate) in series [4] (49 of 58 clones mutated, T-DNA replicon assay, 0 of 34 without endonuclease) was determined as 84.
